Experiments:
Experiment in all cases: competition ELISA, antibody preincubated with target, AMH-coated plate
[1] = molecular target: T1, AMH truncated antigen 21-35 (human)
T1 peptide: GTEALRAEEPAVGTS
Procedure: (§1) 1. AMH antigen was diluted with carbonic acid buffer (20 mmol/L CB, pH 9.6) and then coated on a polyvinyl chloride plate. In the pretreatment, the antibody purified by the protein A column and the synthesized AMH truncated antigen sequences (see Table 3 for each synthetic sequence) were subjected to proportion incubation (100 ng/ml antibody: 50 ug/ml truncated antigen) for 30 minutes, that were test samples; the control sample was 100 ng/ml antibody: PBS, incubation for 30 minutes, and then the test samples after incubation and the control sample were added to AMH antigen plate and incubated for 30 minutes, the plate was washed for 5 times, added with GAM-HRP (1/5000 dilution) and incubated for 30 minutes, the plate was washed for 5 times, and the substrate was added and incubated for 15 minutes. The values under wavelength of 450/620 were read by microplate reader, and the detected OD values were finally calculated and analyzed. The calculation formula was: (control sample OD value−test sample OD value)/control sample OD value, and the criterion for determination was as follows: more than 90%, which indicated a good competitive effect, showing that the antibody should recognize the epitope.

[2] = molecular target: T2, AMH truncated antigen 31-45 (human)
T2 peptide: AVGTSGLIFREDLDW
Procedure: as §1

[3] = molecular target: T3, AMH truncated antigen 51-65 (human)
T3 peptide: QEPLCLVALGGDSNG
Procedure: as §1

[4] = molecular target: T4, AMH truncated antigen 71-85 (human)
T4 peptide: RVVGALSAYEQAFLG
Procedure: as §1

[5] = molecular target: T5, AMH truncated antigen 31-41 (human)
T5 peptide: AVGTSGLIFRE
Procedure: as §1

[6] = molecular target: T6, AMH truncated antigen 31-42 (human)
T6 peptide: AVGTSGLIFRED
Procedure: as §1

[7] = molecular target: T7, AMH truncated antigen 31-43 (human)
T7 peptide: AVGTSGLIFREDL
Procedure: as §1

[8] = molecular target: T8, AMH truncated antigen 32-41 (human)
T8 peptide: VGTSGLIFRE
Procedure: as §1

[9] = molecular target: T9, AMH truncated antigen 33-41 (human)
T9 peptide: GTSGLIFRE
Procedure: as §1

[10] = molecular target: T10, AMH truncated antigen 34-41 (human)
T10 peptide: TSGLIFRE
Procedure: as §1

[11] = molecular target: T11, AMH truncated antigen 34-45 (human)
T11 peptide: TSGLIFREDLDW
Procedure: as §1

[12] = molecular target: T12, AMH truncated antigen 35-45 (human)
T12 peptide: SGLIFREDLDW
Procedure: as §1

[13] = molecular target: T13, AMH truncated antigen 36-45 (human)
T13 peptide: GLIFREDLDW
Procedure: as §1

[14] = molecular target: T14, AMH truncated antigen 36-47 (human)
T14 construct: also called human AMH36-47; AMH3647-27 (Human)
T14 peptide: GLIFREDLDWPP
Procedure: as §1

[15] = molecular target: T15, AMH truncated antigen 37-44 (human)
T15 construct: Printed with a blank (LIFR EDLD)
T15 peptide: LIFREDLD
Procedure: as §1

[16] = molecular target: T16, AMH truncated antigen 37-45 (human)
T16 peptide: LIFREDLDW
Procedure: as §1

[17] = molecular target: T17, AMH truncated antigen 38-45 (human)
T17 peptide: IFREDLDW
Procedure: as §1

[18] = molecular target: T18, AMH truncated antigen 40-45 (human)
T18 peptide: REDLDW
Procedure: as §1

[19] = molecular target: T19, AMH truncated antigen 40-46 (human)
T19 peptide: REDLDWP
Procedure: as §1

[20] = molecular target: T20, AMH truncated antigen 40-47 (human)
T20 peptide: REDLDWPP
Procedure: as §1

[21] = molecular target: T21, AMH truncated antigen 41-45 (human)
T21 peptide: EDLDW
Procedure: as §1

[22] = molecular target: T22, AMH truncated antigen 41-46 (human)
T22 peptide: EDLDWP
Procedure: as §1

[23] = molecular target: T23, AMH truncated antigen 41-48 (human)
T23 peptide: EDLDWPPG
Procedure: as §1

[24] = molecular target: T24, AMH truncated antigen 41-49 (human)
T24 peptide: EDLDWPPGS
Procedure: as §1

[25] = molecular target: T25, AMH truncated antigen 42-46 (human)
T25 peptide: DLDWP
Procedure: as §1

[26] = molecular target: T26, AMH truncated antigen 42-47 (human)
T26 peptide: DLDWPP
Procedure: as §1

[27] = molecular target: T27, AMH truncated antigen 42-48 (human)
T27 peptide: DLDWPPG
Procedure: as §1

[28] = molecular target: T28, AMH truncated antigen 42-49 (human)
T28 peptide: DLDWPPGS
Procedure: as §1

[29] = molecular target: T29, AMH truncated antigen 43-50 (human)
T29 peptide: LDWPPGSP
Procedure: as §1

[30] = molecular target: T30, AMH truncated antigen 43-51 (human)
T30 peptide: LDWPPGSPQ
Procedure: as §1

B1: monoclonal antibody C9F2-2 (antibody, V domains shown)
VH: EVQLVESGGGLVKPGGSLKLSCAASGFAFSTYDMSWVRQTPEKRLEWVAYISPGGGATYYPDTVKGRFTISRDNAKNTLYLQMTSLKSEDTAMYYCAGRRDYYGMDYWGQGTSVTVSS
VL: DVVMTQTPLSLPVSLGDQASISCRSSQSLVHSNGNTYLHWYLQKPGQSPKLLIYKVSNRFSGVPDRFSGSGSGTDFTLKISRVEAEDLGVYFCSQSTHVPWTFGGGTKLEIK
notes: Mouse hybridoma antibody purified from ascites; the tie is indirect; also called hybridoma CCTCC NO: C2018183
[1]
  percent inhibition: 10%
[2]
  percent inhibition: 90%
[3]
  percent inhibition: 9%
[4]
  percent inhibition: 21%
[5]
  percent inhibition: 10%
[6]
  percent inhibition: 16%
[7]
  percent inhibition: 25%
[8]
  percent inhibition: 9%
[9]
  percent inhibition: 9%
[10]
  percent inhibition: 3%
[11]
  percent inhibition: 98%
[12]
  percent inhibition: 97%
[13]
  percent inhibition: 94%
[14]
  percent inhibition: 100%
[15]
  percent inhibition: 24%
[16]
  percent inhibition: 91%
[17]
  percent inhibition: 92%
[18]
  percent inhibition: -14%
[19]
  percent inhibition: -2%
[20]
  percent inhibition: -19%
[21]
  percent inhibition: 15%
[22]
  percent inhibition: 15%
[23]
  percent inhibition: -1%
[24]
  percent inhibition: 3%
[25]
  percent inhibition: -10%
[26]
  percent inhibition: 6%
[27]
  percent inhibition: 2%
[28]
  percent inhibition: -8%
[29]
  percent inhibition: 17%
[30]
  percent inhibition: -10%
